Test results reported in patent US20220411531A1 (SUMGEN MAB BEIJING BIOTECH, published 2022).

B1: antibody 6G12M31 (antibody, V domains shown)
VH: QVQLVQSGPGLVKPSQSLSLTCSVTGFSISSGYYWNWIRQFPGQKLEWMGYRSYDGSNNYDPSLKNRISITRDTSKNQFFLKLNSVTSEDTATYYCARGWLLHYTMDYWGQGTTVTVSS
VL: DIVMTQSPSSVSVTLGQSASISCRSSRSLLHSNGFTYLYWYLQKPGQSPQLLIYQMSNLASGVPDRFSGSGSGTDFTLKISRVEAEDVGVYYCGQNLELPLTFGGGTKLEIK
B2: antibody 6G12M11 (antibody, human IgG1, kappa, V domains shown)
VH: QVQLVQSGPGLVKPSQSLSLTCAVTGFSISSGYYWNWIRQFPGQKLEWMGYRSYDGSNNYNPSLKNRISITRDTSKNQFFLKLNSVTSEDTATYYCARGWLLHYTMDYWGQGTTVTVSS
VL: EIVMTQSPSSVSVTLGQSASISCRSSRSLLHSNGFTYLYWYLQKPGQSPQLLIYQMSNLASGVPDRFSGSGSGTDFTLKISRVEAEDVGVYYCGQNLELPLTFGGGTKLEIKR
B3: antibody 6G12M21 (antibody, human IgG1, kappa, V domains shown)
VH: QVQLVQSGPGLVKPSQSLSLTCSVTGFSISSGYYWNWIRQFPGQKLEWMGYRSYDGSNNYNPSLKNRISITRDTSKNQFFLKLNSVTSEDTATYYCARGWLLHYTMDYWGQGTTVTVSS
VL: DIVMTQSPSSVSVTLGQSASISCRSSRSLLHSNGFTYLYWYLQKPGQSPQLLIYQMSNLASGVPDRFSGSGSGTDFTLKISRVEAEDVGVYYCGQNLELPLTFGGGTKLEIKR
B4: antibody 6G12M41 (antibody, V domains shown)
VH: QVQLVQSGPGLVKPSQSLSLTCSVTGFSISSGYYWNWIRQFPGQKLEWMGYRSYDGSNNYGPSLKNRISITRDTSKNQFFLKLNSVTSEDTATYYCARGWLLHYTMDYWGQGTTVTVSS
VL: DIVMTQSPSSVSVTLGQSASISCRSSRSLLHSNGFTYLYWYLQKPGQSPQLLIYQMSNLASGVPDRFSGSGSGTDFTLKISRVEAEDVGVYYCGQNLELPLTFGGGTKLEIK

How the values were obtained:
[1] = target: T1, AXL on the surfaces of human tumour cells (A549, MDA-MB-231, 786-O) (human, UniProt P30530 27-894); assay: flow cytometry on 786-O cells (second experiment, FIG. 10); 786-O cells; FIG. 10
T1 construct: Endogenous AXL on human tumour cell lines; The tie to the cell-line protein rests on this general definition only; also called cell surface antigen
T1 sequence: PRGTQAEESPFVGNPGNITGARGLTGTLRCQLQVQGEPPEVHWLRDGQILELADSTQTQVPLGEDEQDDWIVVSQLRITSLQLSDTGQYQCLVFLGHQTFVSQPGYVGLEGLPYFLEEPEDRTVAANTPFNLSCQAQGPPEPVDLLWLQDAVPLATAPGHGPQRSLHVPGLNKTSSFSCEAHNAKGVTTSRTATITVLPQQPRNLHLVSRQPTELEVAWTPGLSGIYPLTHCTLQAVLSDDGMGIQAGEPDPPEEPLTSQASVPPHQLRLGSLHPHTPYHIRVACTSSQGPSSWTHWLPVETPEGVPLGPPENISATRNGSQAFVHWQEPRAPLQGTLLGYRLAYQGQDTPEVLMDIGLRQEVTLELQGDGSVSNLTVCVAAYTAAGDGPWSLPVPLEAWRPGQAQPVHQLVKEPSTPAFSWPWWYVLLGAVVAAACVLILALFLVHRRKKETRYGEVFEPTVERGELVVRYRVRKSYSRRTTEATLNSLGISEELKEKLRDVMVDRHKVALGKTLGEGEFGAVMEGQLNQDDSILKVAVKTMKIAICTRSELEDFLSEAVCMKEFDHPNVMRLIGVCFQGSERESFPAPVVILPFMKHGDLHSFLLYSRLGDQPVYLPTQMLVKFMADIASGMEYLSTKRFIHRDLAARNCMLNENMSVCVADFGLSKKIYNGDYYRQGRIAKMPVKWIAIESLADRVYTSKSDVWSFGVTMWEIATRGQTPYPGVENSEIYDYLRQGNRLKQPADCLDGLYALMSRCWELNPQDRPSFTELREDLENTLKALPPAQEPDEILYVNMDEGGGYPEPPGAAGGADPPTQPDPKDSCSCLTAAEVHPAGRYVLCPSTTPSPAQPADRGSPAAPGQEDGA
Method: (§1) Cells in a logarithmic growth phase were collected; the cell density was regulated to 5×10⁶ cells/mL; and pre-cooling was performed on ice. The antibodies 6G12M11, 6G12M21, 6G12M31, and 6G12M41 were diluted to 20 μg/ml with pre-cooled normal saline containing 2% FBS. 100 μl of cells were taken, and an equal volume of each of the foregoing diluted antibodies was added to the cells to react for 30 minutes at 4° C. in the dark. After the completion of reaction, the cells were washed twice with pre-cooled physiological saline containing 2% FBS (6000 rpm, 45 s). The secondary antibody PE Mouse Anti-Human IgG (BD Pharmingen) was diluted at 1:5 with pre-cooled physiological saline containing 2% FBS, and 100 μL of the secondary antibody was taken for resuspending the cells, with a reaction conducted for 30 minutes at 4° C. in the dark. After the reaction, the cells were washed twice with pre-cooled physiological saline containing 2% FBS (6000 rpm, 45 s). The cells were resuspended by using 400 μl of 1% paraformaldehyde. The binding of antibodies to cell surface antigens was analyzed by means of a flow cytometer (BD Calibur).

[2] = target: T1, AXL on the surfaces of human tumour …; assay: flow cytometry on MDA-MB-231 cells (second experiment, FIG. 9); MDA-MB-231 cells; FIG. 9
Method: as §1

[3] = target: T1, AXL on the surfaces of human tumour …; assay: flow cytometry on 786-O cells
Method: as §1

[4] = target: T2, TYRO3-Fc (ACRO Biosystems) (UniProt Q06418 41-428, limits assumed); assay: ELISA, TYRO3-Fc coated at 1 µg/ml, anti-human IgG Fab-HRP, OD450
T2 construct: Bought reagent; also called TRYO3; not shown: Fc part
T2 sequence (looked up): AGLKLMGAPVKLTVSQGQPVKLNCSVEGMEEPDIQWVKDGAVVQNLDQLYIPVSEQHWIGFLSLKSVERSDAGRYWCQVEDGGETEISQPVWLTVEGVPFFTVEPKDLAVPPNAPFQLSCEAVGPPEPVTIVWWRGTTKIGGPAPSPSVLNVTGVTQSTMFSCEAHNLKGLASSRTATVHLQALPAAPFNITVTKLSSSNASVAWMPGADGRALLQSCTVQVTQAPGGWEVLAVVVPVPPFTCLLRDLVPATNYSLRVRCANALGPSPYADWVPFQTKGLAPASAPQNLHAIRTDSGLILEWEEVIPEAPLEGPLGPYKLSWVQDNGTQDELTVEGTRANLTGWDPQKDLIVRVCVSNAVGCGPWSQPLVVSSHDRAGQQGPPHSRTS
Method: TYRO3-Fc (ACRO Biosystems), MER-His (ACRO Biosystems), and AXL-His (Sino Biological Inc.) each were coated at 1 μg/ml on an ELISA strip, which was held at 4° C. overnight. After the ELISA strips were washed with PBST, 10% fetal bovine serum was added to the ELISA strip, which was blocked for 1 hour at 37° C. Antibodies […], 6G12M21, 6G12M31 and 6G12M41 were added to react at 37° C. for 1 hour. After the ELISA strips were washed with PBST, horseradish peroxidase-labeled goat anti-human IgG Fab secondary antibodies (Goat Anti-Human IgG (Fab′)₂ (HRP), Abcam) were added to react for 30 minutes at 37° C. The ELISA strips were washed 5 times with PBST, and patted and dried on absorbent paper to remove residual droplets as much as possible. 100 μl of TMB (eBioscience, #85-00-420) was added to each well, and the ELISA strips were held for 1.5 min at room temperature (20±5° C.) in the dark. 100 μl of 2N H₂SO₄ stop solution was added to each well to terminate substrate reaction. The OD value was read at 450 nm by a microplate reader to analyze the binding ability of antibodies to the proteins.

[5] = target: T1, AXL on the surfaces of human tumour …; assay: flow cytometry on MDA-MB-231 cells
Method: as §1

[6] = target: T1, AXL on the surfaces of human tumour …; assay: flow cytometry on A549 cells
Method: as §1

[7] = target: T1, AXL on the surfaces of human tumour …; assay: flow cytometry on 786-O cells (second experiment, FIG. 10); 786-O cells; second experiment, FIG. 10
Method: as §1

| Binder | EC50 [1] | EC50 [2] | EC50 [3] | binding result [4] | EC50 [5] | EC50 [6] | EC50 [7] |
| --- | --- | --- | --- | --- | --- | --- | --- |
| B1 | 0.53 µg/mL | 0.6 µg/mL |  |  |  |  |  |
| B2 |  |  | 0.43 µg/mL | no binding (tested: about 1 µg/mL) | 0.59 µg/mL | 0.46 µg/mL |  |
| B3 |  |  | 0.31 µg/mL |  | 0.39 µg/mL | 0.78 µg/mL | 0.4 µg/mL |
| B4 | 0.47 µg/mL | 0.54 µg/mL |  |  |  |  |  |
